From FireProtDB (doi:10.1002/pro.342)

B1: Regulatory protein rop, P03051 (parent)
chain: MTKQEKTALNMARFIRSQTLTLLEKLNELDADEQADICESLHDHADELYRSCLARFGDDGENL

Variants of: B1
Details: Escherichia coli, pH 6.3, CD, Phosphate 50 mM, NaCl 300 mM, structure 1ROP, whole UniProt chain shown; for Tm / change of melting temperature, mutant - wild type (higher = more stable) / heat capacity change of unfolding / unfolding enthalpy (van 't Hoff): Thermal

For MTKQEKTALNMARFIRSQTLTLLEKLNELDADEQADIAESLHDHADELYRSVLARFGDDGENL [C38A C52V], the Tm was 74 °C, the “change of melting temperature, mutant - wild type (higher = more stable)” value was 4 °C and the “heat capacity change of unfolding” value was 1.1 kcal/mol/K. For the same variant, the “unfolding enthalpy (van 't Hoff)” value was 65 kcal/mol, the denaturant m value (Urea) was 1.3 kcal/mol/M and the “denaturant midpoint (higher = more stable)” value (Urea) was 4.1 M. For the same variant, the unfolding free energy (Urea) was 11 kcal/mol.

With MTKQEKTALNMARFIRSQTLTLLEKLNELDADEQADIAESLHDHADELYRSALARFGDDGENL [C38A C52A] the Tm was 56 °C, the “change of melting temperature, mutant - wild type (higher = more stable)” value was -14 °C and the “heat capacity change of unfolding” value was 1.1 kcal/mol/K. For the same variant, the “unfolding enthalpy (van 't Hoff)” value was 65 kcal/mol, the “ddG of mutation (higher = less stable)” value (Urea) was 8.3 kcal/mol and the denaturant m value (Urea) was 0.9 kcal/mol/M. For the same variant, the “denaturant midpoint (higher = more stable)” value (Urea) was 2.3 M and the unfolding free energy (Urea) was 7.7 kcal/mol.
